In US20240124857A1, “COMPOSITION FOR GUT HEALTH” (DUPONT NUTRITION BIOSCIENCES APS, priority 2021, published 2024):
Numbering of substitutions follows the chain as printed. In names and notes the source's numbering stands. One block for each molecule: values may come before it.

What was measured:
[1] = ATPase activity at 0.05 ppm enzyme on 0.1 mM ATP (absorbance 620 nm); assay type: biochemical; settings: for Activity on ATP (absorbance at 620 nm, blank subtracted), pH 5.0: 50 mM IVIES buffer pH 5; for Activity on ATP (absorbance at 620 nm, blank subtracted), pH 6.0: 50 mM IVIES buffer pH 6
Protocol: Enzyme activity towards ATP or ADP at pH 3 to 9: The ability of candidate enzymes to degrade ATP or ADP to AMP and free phosphate (Pi) was measured using a standard malachite green phosphate detection kit (Sigma Aldrich cat no. MAK307). The enzyme reactions were carried out in 96-well plates with a total volume of 150 μL and contained 250 μM of a substrate, 50 mM of a buffer, 5 mM CaCl2, and a variable concentration of enzyme. The substrate was ATP or ADP. The buffer was glycine (pH 3), acetate (pH 4, 4.5, 5), bis-Tris (pH 5.5, 6, 6.5), or Tris (pH 7, 8, 9). The concentration of enzyme varied from about 1 μg/mL to 1 ng/mL and was adjusted based on the activity of the enzyme so that the amount of phosphate released during the assay was with the dynamic range of the assay (5-100 μM phosphate). The enzyme concentration was determined by the absorbance at 280 nm and using the predicted molecular weight and molar extinction coefficient to calculate the concentration. The enzyme reaction was initiated by the addition of 15 μL enzyme with 135 μL of the other reaction components such that the final reaction composition was as previously described. The reaction was stopped after 5 min by mixing 80 μL of the reaction mixture with 20 μL of the malachite green working reagent. The malachite green working reagent was prepared according to the manufacturer's protocol by mixing 100 parts reagent A with 1 part reagent B. Phosphate standard solutions (0-80 μM) and a negative control reaction without enzyme were also mixed with the malachite green working reagent. All samples were tested in duplicate. The malachite green reaction mixture was allowed to rest at room temperature for 45-60 min and the absorbance at 620 nm was measured. Lastly, the absorbance of the phosphate standards were used to convert the absorbance readings of each sample into phosphate concentrations and the negative control was subtracted from each reaction.
Enzymes of interest were assayed against ATP substrate. The ATPase activity was measured at 0.05 ppm concentration in 50 mM IVIES buffer pH 6 and pH 5 with 0.1 mM ATP as substrate as described in Example 1. Commercial potato apyrase was used as reference. The absorbance at 620 nm was measured and the absorbance of a blank sample (water) was subtracted from each sample.

[2] = Enzyme substrate specificity on nucleotide substrates (malachite green assay); assay type: biochemical; settings: FIG. 3; bis-Tris pH 6.5 (CRC21323, CRC21322 acetate pH 4.5; CD39 pH 7)
Protocol: Enzyme activity towards ATP or ADP at pH 3 to 9: The ability of candidate enzymes to degrade ATP or ADP to AMP and free phosphate (Pi) was measured using a standard malachite green phosphate detection kit (Sigma Aldrich cat no. MAK307). The enzyme reactions were carried out in 96-well plates with a total volume of 150 μL and contained 250 μM of a substrate, 50 mM of a buffer, 5 mM CaCl2, and a variable concentration of enzyme. The substrate was ATP or ADP. The buffer was glycine (pH 3), acetate (pH 4, 4.5, 5), bis-Tris (pH 5.5, 6, 6.5), or Tris (pH 7, 8, 9). […] The enzyme concentration was determined by the absorbance at 280 nm and using the predicted molecular weight and molar extinction coefficient to calculate the concentration. […] The malachite green reaction mixture was allowed to rest at room temperature for 45-60 min and the absorbance at 620 nm was measured. Lastly, the absorbance of the phosphate standards were used to convert the absorbance readings of each sample into phosphate concentrations and the negative control was subtracted from each reaction.
Enzyme substrate specificity: The activity of the enzymes on different nucleotide substrates was tested using the malachite green assay. […] After converting the absorbance to phosphate concentration, the activity of each enzyme was set relative to the activity on ATP.

[3] = Enzyme acid resistance: residual activity on ATP after incubation at pH 2; assay type: physicochemical; settings: FIG. 4; for stability in acid resistance assay: pH 2 for 15 or 60 min
Protocol: Enzyme acid resistance: Candidate enzymes were tested for their ability to resist inactivation at low pH by incubating the enzymes in an “acid buffer” of 50 mM glycine and 5 mM CaCl2 at pH 2 for 15 or 60 minutes and comparing their activity to enzymes in a “control buffer” at their optimum pH. The optimum buffer for CRC21323 and CRC21322 was 50 mM acetate pH 4.5 with 5 mM CaCl2. The optimum buffer for all other enzymes was 50 mM bis-Tris pH 6.5 with 5 mM CaCl2. After incubating in the acidic glycine buffer, the enzyme mixtures were neutralized by mixing with an equal volume of neutralization buffer. The neutralization buffer for CRC21323 and CRC21322 was 100 mM acetate and 10 mM CaCl2 at pH 4.5. The neutralization buffer for the other enzymes was 100 mM bis-Tris and 10 mM CaCl2 at pH 6.5. Next, the acid-stressed and control enzyme were tested for their ability to release phosphate from ATP using the reaction conditions and malachite green assay as described in with the following changes. The only substrate tested was ATP. CRC21323 and CRC21322 were tested with a buffer of acetate pH 4.5, but all other enzymes were tested in a buffer of bis-Tris pH 6.5. After determining the concentration of phosphate in each reaction, the residual activity of each enzyme after 15 or 60 min incubation in the “acid buffer” was calculated by dividing the acid-stressed by the control enzyme phosphate concentrations for each enzyme.

[4] = Relative activity on ATP of CRC22110 single-site variants; assay type: biochemical; settings: in comparison to CRC22110 wild type
[5] = test system: Acute DSS colitis in C57BL/6 mice; experiment: Chemically-induced DSS colitis mouse model, disease activity index (DAI); assay type: in vivo
Excerpt: Acute DSS colitis was induced in C57BL/6 mice according to the previously published method with minor modification (Sann et al., 2013, Life Sci. April 9; 92(12):708-18). The mice were fed 3% (w/v) DSS dissolved in the drinking water on day one to day five. Fresh DSS solution was provided every other day. Control mice (Group 1) drank only distilled water. Groups 4 to 8 received candidate acid phosphatase enzymes by oral gavage and groups 9 to 12 received enzymes via catheter (Table 2). DAI was calculated as described earlier (Cooper et al., 1993, Laboratory investigation; a journal of technical methods and pathology. 69(2):238-49).

B2: CRC21322: Acid phosphatase (Class A), accession AEG96708.1, SEQ ID NO:17 (protein)
chain: KENKGFLNADTSPDSLAILPPPPTENSVAFLQDKADYETGRVLKNKERTELAAKDANYKNFGQAFSEAFGMVISAERTPVLYLLLSEVLQDSHDYAMRSAKDHYMRVRPFVLYKNPTCTPEKDDKMAKTGSYPSGHASFGWAAALVLAEINPARETEILKRGMDFGESRVVCGAHWQSDVDSGRIMGAAVVAALHANPRFANTLSEAKKEFAALSAKSE
modifications: Klebsiella aerogenes
Activity on ATP (absorbance at 620 nm, blank subtracted), pH 5.0 [1]: 0.40 | Activity on ATP (absorbance at 620 nm, blank subtracted), pH 6.0 [1]: 0.07 | stability in acid resistance assay [3]: least stable

B3: CRC22110v1: single-site variant S204A of CRC22110 (SEQ ID NO: 9) (protein, listed as Gallaecimonas xiamenensis)
chain: ADKPACRAVFDAGSSGTRLFLYVQQEGGWQPWPGAKLGALADPVRQHQGPKAMAALAADLANSLEALRQDGPTNSEGQPRWQGFDWQQACRLQSVSVLATAGMRLAEQQDPVASVALWQEVQQALAGLLGPAVAIDARTLTGFEEGFYAWLAARARLGRSDMGIVEMGGASSQVAFPCPACDRADDAVQQVRLEGQTLDFYSYAFLGLGQDEAPKVLGVPHACRYGAGVKDPNWQLGQCQAQLPLTLGRALKDPYNFQGQGQGGYRQVPTEKAGVKDWLLTGAFQYNTPDQLDSCCLNQGQCYQPSTACFRVAYLPLYLDSLGVDPHSPDLDVSWTLGAVLCRNEQCLAPSKPPCRWRKAGCLAPSVGDGRPEGRPGQQPGGVQHRQH
Relative activity (%) on ATP [4]: 37%

B4: CRC22110v7: single-site variant S204T of CRC22110 (SEQ ID NO: 9) (protein, listed as Gallaecimonas xiamenensis)
chain: B3 chain with A204T
Relative activity (%) on ATP [4]: 53%

Further lines, with some results ahead:

Activity on ATP (absorbance at 620 nm, blank subtracted), pH 5.0 [1]: 0.26 | Activity on ATP (absorbance at 620 nm, blank subtracted), pH 6.0 [1]: 0.28
B1: CRC22105: GDA1/CD39 family enzyme, accession WP_045094910.1, SEQ ID NO:8 (protein, listed as Legionella fallonii)
chain: ENASCDKHQCITVIDAGSTGSRVHIYAYDLDETNTPTNINEIWTKKIKPGFATIDPNYNTIDAYLTILLSGAPTQQGPVYFYATAGMRLLPASKQKLYYQELQRWFTQQTQWHFVEAKTITGNEEALYDWLSVNYHLGTLKSVQNKAIGVMDMGGASVQIVFPIQKNENIHGRSQVELNIYGQRINLFVHSFLGLGQTEMSHQFLNSTSCFTNDYPLPDGEMGLGNALSCEQEVSSLMNAVHGVSKTIQPVLAANSVDSWYAIGGLTNLADNKLFNFVNGQLTNQSLIEQADSQICHQQWSKLDAQYPNDDYIYGYCLFSSYFYALMVDGYGISPEQTVNYISPSINLDWTKGVVLHHLS
activity on different nucleotide substrate relative to ATP [2]: noticeably reduced activity on UTP/UDP and CTP/CDP

Activity on ATP (absorbance at 620 nm, blank subtracted), pH 5.0 [1]: 0.39 | Activity on ATP (absorbance at 620 nm, blank subtracted), pH 6.0 [1]: 0.10
B5: CRC21323: Acid phosphatase (Class A), accession WP_054306375.1, SEQ ID NO:18 (predicted mature), SEQ ID NO:2 (protein, listed as Serratia rubidaea)
chain: AQTPGFLTPETAPDSLQILPPPPAENTTAFLNDKAAYETGKTLKDAQRQALAASDADYKNISAAFSAAFGEEISPEKTPALYALLQGVLQDSHDYAMRAAKDHYMRVRPFVVYKDSTCTPEKDKSMAKTGSYPSGHASFGWATALVLTEINPARETEILKRGYDFGQSRVVCGAHWQSDVDNGRLMGAAVVAALHGNQGFNDALAKAKAEFAKR
stability in acid resistance assay [3]: least stable | reduction in DAI score compared to control ([5]; catheterized mice, test items via cecum BID, FIG. 6A, 6B): 40% | improvement in DAI score compared to control ([5]; non-catheterized mice, oral gavage BID, FIG. 5A, 5B): 43%

Activity on ATP (absorbance at 620 nm, blank subtracted), pH 5.0 [1]: 0.45 | Activity on ATP (absorbance at 620 nm, blank subtracted), pH 6.0 [1]: 0.27
B6: CRC21328: GDA1/CD39 family enzyme, accession CCD05982.1, SEQ ID NO:6 (protein, listed as Legionella pneumophila)
chain: DTNPCEKHSCIAVIDAGSTGSRLHIYSYDTDNTNTPIHIEEIWNKKIKPGFASIQPNSVTIDAYLTMLLADAPIHNIPVYFYATAGMRLLPQSQQKKYYDELEYWFRQQSQWQLVEAKTITGNDEALFDWLAVNYKLDTLKSVQNKSVGVMDMGGASVQIVFPMPKNAEISKHNQVELNIYGQNINLYVHSFLGLGQTEMSHQFLNSPSCFANDYPLPDGESGQGNAPSCKEEVTSLMNSVHKVNQQIQPLLALNPVNEWYSIGGISNLASSQLFHFENSELTNQSLLQQGDNQICHQQWDILNGQYPDDEYLYQYCLLSSYYYALMVDGYGINPNQTIHYIPPEQNLDWTIGVVLHRA
residual activity after incubation at pH 2 ([3]; 60 min in acid buffer, 50 mM glycine, 5 mM CaCl2): greatest resistance
